Measured values reported in PMC9170038, “Crowdsourced RNA design discovers diverse, reversible, efficient, self-contained molecular switches”.

Key:
Settings in all cases: chain copies: 2; label: tethered by stalled RNA polymerase
[1] = biological target: T1, MS2 coat protein, dlFG mutant (Escherichia phage MS2, UniProt P03612, del68-81insG); assay: 4 mM Mg2+; L-tryptophan 2.4 mM; RNA-MaP array; 100 mM Tris-HCl pH 7.5, 80 mM KCl, 4 mM MgCl2, 0.1 mg/mL BSA, 1 mM DTT, 0.01 mg/mL yeast tRNA, 0.01% Tween-20; protein 1.5 nM to 3 uM; 37 C (Table S3)
[2] = biological target: T1, MS2 coat protein, dlFG mutant; assay: 4 mM Mg2+; miR-208a RNA 100 nM (AU…UUGU); RNA-MaP array; 100 mM Tris-HCl pH 7.5, 80 mM KCl, 4 mM MgCl2, 0.1 mg/mL BSA, 1 mM DTT, 0.01 mg/mL yeast tRNA, 0.01% Tween-20; protein 1.5 nM to 3 uM; 37 C (Table S3)
[3] = biological target: T1, MS2 coat protein, dlFG mutant; assay: 4 mM Mg2+; theophylline 2 mM; RNA-MaP array; 100 mM Tris-HCl pH 7.5, 80 mM KCl, 4 mM MgCl2, 0.1 mg/mL BSA, 1 mM DTT, 0.01 mg/mL yeast tRNA, 0.01% Tween-20; protein 1.5 nM to 3 uM; 37 C (Table S3)
[4] = biological target: T1, MS2 coat protein, dlFG mutant; assay: 4 mM Mg2+; FMN 200 uM; RNA-MaP array; 100 mM Tris-HCl pH 7.5, 80 mM KCl, 4 mM MgCl2, 0.1 mg/mL BSA, 1 mM DTT, 0.01 mg/mL yeast tRNA, 0.01% Tween-20; protein 1.5 nM to 3 uM; 37 C (Table S3)

B1: Eterna 7613251 (Exclusion - Tryptophan A) (ssRNA)
RNA: CGGACAUGAGGAUCACCCAUGUCGUCGACGCGAGGACCGGUACGGCCGCCACUCGCAUGCCAAUGAGCGCAUGCGGCCUGGGUAU
For B1, the Kd [1] was 22.8 nM.

B2: Eterna 7644049 (Same State - Tryptophan A) (ssRNA)
RNA: ACAUGAGGAUCACCCAUGUCAUGAGGUUCACGAGGACCGGUACGGCCGCCACUCGACAUGAGGGUCACCCGUGAACGGAACACCC
Work on B2 yielded a Kd [1] of 20 nM.

B3: Eterna 12069 (Sensor v3, turn-off variant 1) (ssRNA)
RNA: UGUUGUUGUUUCCGUUCUUACAUGAGGAUCACCCAUGUUUCUUGUCGUGCUCGCGUUGCUCGUCAGACUACCUGUUG
Work on B3 yielded a Kd [2] of 111 nM.

B4: Eterna 7618605 (Same State - Theophylline A) (ssRNA)
RNA: UGUAACAUGAGGAUCACCCAUGUGAGUGAUACCAGAUUAGUAUUAGUCCCUUGGCAGCACAUUGGGCGAGUGUAUAGUCUAUGCG
In the case of B4, the Kd [3] is reported as 109 nM.

B5: Eterna 6430193 (Small Loop Exclusion NG 3) (ssRNA)
RNA: GUCGAAACCAUACUGGUCGACGGUCAGGAUAUACAUGAGGAUCACCCAUGUGCUAUUGAUACUAUGUAGAAGGGACCCACCGCA
B5 was tested, and the Kd [4] was 24.4 nM.
